The data set can be described thus: amyloid nucleation score (Sup35N fusion, yeast selection) (log enrichment); library NNK3; higher = more nucleation; inactive = no reads after selection. The essentials:
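For the nucleation score, DiMSum gave the log enrichment of output over input reads, centred on the mode score of non-aggregating sequences. Psi-negative yeast expressing Sup35N fused to peptides of 20 random codons were induced with 100 μM copper sulfate for 24 hours and grown 7 days at 30°C on medium lacking adenine and uracil. Input and output plasmid inserts were Illumina-sequenced, and sequences with under 100 input reads were excluded.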

± gives the uncertainty stated by the source.

The substance SLPACKSGVKNTYVLYLTWN had an amyloid nucleation score of 1.19 ± 0.11.
For the substance MLAGWSQFYGISRYLPENPV, the amyloid nucleation score entry is “inactive”.
Under DLVCTSLTRVAYRELIVWWF stands “inactive”.
The result for GNTFLWCGRVDSYSTHSYLC reads “inactive”; that for CMTLYLLSLSC, “inactive”.
The result for NTIRKKNLLFQAWLC reads “inactive”.
As to YYLGSADGDPDIKWSLGYRK, the amyloid nucleation score entry was “inactive”.
The result for YLVAKDVSCNWVVTDGRLCH reads “inactive”; that for SLCRRWVNLDTGSPYGTL, “inactive”.
The result for FSKFQTYVSHMVVYGIMSGN reads “inactive”; that for FSSSPR, “inactive”.
Under IYRQDCGFSPKNRKMVSGAA stands “inactive”; under GWMYTCRDAHYLDGWRLVHD, “inactive”; under FGLVRTNRDILH, “inactive”.
With GMAEFALQWIRMIGRL, the amyloid nucleation score was determined as 0.214 ± 0.45.
Under LNLQNVVYGTMSEHSASSVD stands “inactive”; under YYQGAQPLNPGAR, “inactive”; under SNDVKNVHP, “inactive”.
Under MILLGKNSLDPEGKGVCHVW stands “inactive”.
As for IIFNFFSRVLELLMLGYPYT, the amyloid nucleation score entry is “inactive”.
The result for KFIWYIDDCWWCTTICSSGG reads “inactive”.
The result for SRCWVYRKRTPCNVY reads “inactive”; that for IISSSL, “inactive”; that for RLFTTLVRDLTENCIRFLWT, “inactive”.
As to FECKLNRGWSKQARWLNKLY, the amyloid nucleation score worked out at 0.177 ± 0.38.
Under EVRLLGYLVTRNDM stands “inactive”; under DELTNLPCY, -0.405 ± 0.79; under DGRCKMLPVESGGAC, “inactive”.
As to FSIRDSTTLKVPEECLSTWI, the amyloid nucleation score result was “inactive”.
The result for LYSVFVRRSCLNG reads “inactive”.
In the case of SCVTHLPTVT, the amyloid nucleation score result is “inactive”.
Under WVFRFRNQ stands “inactive”; under YHGCPERVWLSA, “inactive”; under NLFDGTN, “inactive”.
Under REWRSNDGFFGSDSGVVGHT stands “inactive”; under HCFVANGFLD, “inactive”; under AIDLKLAKSEWGWSALGWFL, “inactive”.
Under DGGRTSLLLTEKKVR stands “inactive”.
For the substance LICAW, the amyloid nucleation score result was “inactive”.
On to CIVAANHRRCNFLRLGRRLG, for which the amyloid nucleation score was -0.654 ± 1.5.
For the substance TIYVLCGRTIRWFVLNPLQE, the amyloid nucleation score result was “inactive”.
The result for LKVKLANR reads “inactive”.
Under GRKVCLSRPTRFNSFLWMVY stands “inactive”; under RSFRSKPKYLLTSDTCWSLT, “inactive”.
Consider WRSTRIRTSWHTDTDFLSNG, for which the amyloid nucleation score result is “inactive”.
The result for NSRRCRNFASHRWPPEFRNS reads “inactive”; that for IMSSVVYECFKVLRHSVMSG, “inactive”; that for VIWLGRRCTFLHKPTSRGQW, 0.021 ± 0.6.
Under DLHVLSVK stands “inactive”; under SGQNKEQVVWMCTVRLPESS, “inactive”; under LYSLVFWNDSSCRSRLVTWF, “inactive”.
The result for RSHPKCHSSLLHSWK reads “inactive”; that for ESYTWL, “inactive”.
For the substance RRKRYCISDLA, the amyloid nucleation score result is “inactive”.
In the case of VDVFK, the amyloid nucleation score entry was “inactive”.
For the substance YFVSVGRNKELRGLFTRLVV, the amyloid nucleation score result was “inactive”.
The result for NIGYSLWRHYTNSRG reads “inactive”; that for TTDLKC, “inactive”.
On to WFVRLLGSAFN, for which the amyloid nucleation score result was “inactive”.
Consider LIACSHSRNT, for which the amyloid nucleation score result is “inactive”.
The result for VRNEYACNCTYMRIARLDE reads 0.319 ± 0.29.
The result for RGLVLVFVREAYRREY reads 0.598 ± 0.29; that for DSICDTCYAVGCLPRVCWVV, “inactive”.
Under CNIVSMFGCSGVMMACAAVV stands “inactive”.
On to MYLVG, for which the amyloid nucleation score result was “inactive”.
The result for TLCSSGGMFHRSMDSITMS reads “inactive”.
The result for MSMVFIVSCNDDIYTRAR reads 0.119 ± 0.24; that for AWSLVGMHAVNNFHLKQEFL, “inactive”; that for PLSLSGGDDDRLLSLEMLVL, “inactive”.
On to VDEFFGRGVHWLTVRLGLGM, for which the amyloid nucleation score result is “inactive”.
The result for YYLSTTGMWNFVSSNGALYG reads -0.793 ± 1.3; that for VVGSSIK, “inactive”; that for SIRNFVTSENTVLSDIKPWR, “inactive”.
Under RDLVPLDDRA stands “inactive”.
The result for WTSHALKISPLNICNQLEHV reads -0.09 ± 0.77.
As to PSLYDLKRSCWGSWMAYEWK, the amyloid nucleation score entry was “inactive”.
The result for LGSGEATE reads “inactive”; that for YIYRKCVD, “inactive”.
The result for NDHVRAFTDIFMCTMAIMND reads “inactive”.
PLPYANKNNCFGNSSLRATI: the amyloid nucleation score result is “inactive”.
The result for YSNLLAYWIQISKWIATGRC reads “inactive”; that for IRSDTVSTARPGNLTNC, “inactive”.
Under QMEKHLRAASVSVCTSQSPV stands “inactive”; under NRRGSSVVRI, “inactive”; under CYYDSLYCVEFHFCNYIVVL, -0.127 ± 0.99.
On to RSMSSGAICSMSY, for which the amyloid nucleation score result is “inactive”.
The result for KSGTCK reads “inactive”.
The result for RMPRQGLWMRVF reads “inactive”.
The result for QFMYMFRARRTCGLNNGGQD reads -0.689 ± 1.5.
With SSRVVAWLSFNGSIICLFTF, the amyloid nucleation score result was “inactive”.
Under SFRFWSFYTCGEYKWDGTKG stands “inactive”; under MQFLRYSLPSDNRLPGCFL, “inactive”.
The result for EVPLDVAVKGRLW reads “inactive”; that for NVRVYSFQMTVECKELLDSQ, “inactive”.
For LINAYQLLFQNHQKEMMFVT, the amyloid nucleation score entry was “inactive”.
Turning to FIITPTYIICQRLFY, the amyloid nucleation score entry is “inactive”.
The result for DFGVYNEHHGYLILGIKRDQ reads “inactive”.
The result for KGFRAVCWICIYRDEY reads -0.533 ± 0.84.
The result for LISCAMGRELTYRSNSRRGR reads “inactive”; that for CVKVGDGCLHASIGAR, “inactive”; that for CVYGKYLFLVIPEDEPTLYV, 0.439 ± 0.31.
On to SYLYLCRIKVDLPFWSDRLV, for which the amyloid nucleation score entry is “inactive”.
Under KGGDELYFEELDEWSQGSRR stands “inactive”; under DFIRRVHYLKLSVWDVMTMR, “inactive”.
With YLTEWDLGNVWRNPSAATPM, the amyloid nucleation score entry was “inactive”.
Regarding FLAWYMTFMV, the amyloid nucleation score was 0.036 ± 0.88.
Under VFFRYWV stands 1.62 ± 0.073.
Under RAPAMGL stands “inactive”; under VLMISCTS, “inactive”.
On to RDSQRSVRVTAIDG, for which the amyloid nucleation score result was “inactive”.
The result for LSFFGSYSSSRLF reads 1.43 ± 0.11; that for PTLLTMRQEQRHAKNFRSNL, “inactive”; that for CYLISILPLGLFIDSLAWVT, “inactive”.
As for LLVVY, the amyloid nucleation score result is “inactive”.
Take YYRGITMCT: the amyloid nucleation score entry is “inactive”.
Under KSGPYAVRLSEISWCDVRAG stands 0.153 ± 0.88.
Under LLCMWFCKSRLPRCSKCCSR stands “inactive”; under TPKLAALFS, -0.497 ± 1.3.
The result for ALNDLLAYSLSSKSFSYNWI reads “inactive”; that for LRRMDQMANDLFAI, “inactive”.
Turning to MFCDLINESSHCCEATLECN, the amyloid nucleation score entry was “inactive”.
Under CSRSAENNFMMNLLNTIRVL stands “inactive”.
The result for QYFVP reads “inactive”; that for NSFDFYAAGPY, “inactive”.
Take KGLSIIWMGQFGGAEFRITG: the amyloid nucleation score entry is “inactive”.
Regarding FKGTTMIGRYINRVVMWAWS, the amyloid nucleation score entry was “inactive”.
Take LFCLKIKLEAERRYLQGLRH: the amyloid nucleation score was 1.72 ± 0.09.
The result for YVFFIVMASSCWHVHSYNYF reads -0.437 ± 0.98.
In turn, KPVKTWNYLFWMCL gave an amyloid nucleation score of 2.49 ± 0.072.
Regarding TTHVILCLCNL, the amyloid nucleation score is 3.07 ± 0.073.
As for SSTRIMNISVSRWSEMDKPD, the amyloid nucleation score result is “inactive”.
The result for PLSLDFVDVARFSGRTGCWF reads “inactive”; that for NWRLFWG, 1.6 ± 0.077.

These data come from the supplement of paper PMC12042874.
